Laboratory results taken from the supplement of paper PMC9732359.
± gives the uncertainty stated by the source.

Experiment: protein stability index of a GFP-peptide fusion (yeast GPS) (PSI 1-4); higher = more stable; sorted into four equal gates, so the index is relative within each strain
In short: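 Tiled 17-residue yeast protein peptides were fused downstream of GFP in a plasmid that also expresses Cherry, and the pooled library was carried in yeast. Mid-log cultures in leucine-free medium were sorted into four equal gates by GFP/Cherry fluorescence ratio, and plasmids from each gate were PCR-amplified and Illumina-sequenced, with reads assigned to strains by barcodes. The protein stability index for each peptide was each gate's read frequency times its gate number, summed.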

| Sequence | protein stability index (doa10∆) | protein stability index (pdr5∆) | protein stability index (san1∆) | protein stability index (ubr1∆) |
| --- | --- | --- | --- | --- |
| TPQSKGFVRNSFFSGLS [RPO31] | 3.01 ± 0.089 | 2.79 ± 0.074 | 3.13 ± 0.089 | 2.86 ± 0.046 |
| TQQSHEQQPEQPQETEE [RPT4] | 2.9 ± 0.056 | 3.16 ± 0.058 | 2.99 ± 0.056 | 2.98 ± 0.047 |
| LQNIVMDCTKEEEATMT [YIL149C/MLP2] | 3.4 ± 0.12 | 3.3 ± 0.1 | 3.31 ± 0.086 | 2.98 ± 0.089 |
| WPIVNSKVYFNNQSKEK [RPN12] | 2.87 ± 0.15 | 2.78 ± 0.15 | 2.67 ± 0.21 | 3.03 ± 0.13 |
| ASGKEVEKVATAVLSTT [RPN2] | 2.76 ± 0.14 | 3.47 ± 0.17 |  |  |
| TFVPTNSDKPRDVYVFD [DIS3] | 3 ± 0.062 | 2.93 ± 0.071 | 3.11 ± 0.064 | 3 ± 0.059 |
| DKKVLVKVQPEGKYIVD [RPT6] | 3.23 ± 0.081 | 3.28 ± 0.088 | 3.23 ± 0.036 | 2.96 ± 0.062 |
| ISNGNLATGPNLTSEIE [YOR098C/NUP1] | 3.4 ± 0.096 | 3.39 ± 0.11 | 3.17 ± 0.06 | 3.41 ± 0.091 |
| SADPSLLIDQFSPVISQ [SWI1] | 2.85 ± 0.12 | 3.08 ± 0.1 | 2.51 ± 0.18 | 2.96 ± 0.067 |
| GVSSPGFSPTSPTYSPT [RPO21] | 2.82 ± 0.069 | 3 ± 0.058 | 2.82 ± 0.057 | 3.05 ± 0.055 |
| ELAVENPLAKTMADAVR [SEC65] | 3 ± 0.048 | 2.94 ± 0.039 | 2.5 ± 0.047 | 1.77 ± 0.026 |
| MDPQTLITKANKVSYYG [RTT102] | 1.85 ± 0.047 | 1.73 ± 0.042 | 1.71 ± 0.12 | 1.87 ± 0.052 |
| DLDLNEQVRKMYQEWED [NSL1] | 2.97 ± 0.13 | 3.39 ± 0.11 | 3.26 ± 0.071 | 2.92 ± 0.11 |
| QWNKLTSFDIKREGRNE [POP6] | 3.31 ± 0.3 |  |  |  |
| VRDKLDEYQAAVEQRKK [DPB4] | 3.42 ± 0.097 | 3.37 ± 0.066 | 3.31 ± 0.055 | 3.33 ± 0.073 |
| ERELISNIEQTESLRVE [YIL149C/MLP2] | 3.34 ± 0.063 | 3.47 ± 0.078 | 3.18 ± 0.041 | 3.37 ± 0.07 |
| IELLSLDDDSIVNHEQD [SRB4] | 2.9 ± 0.1 | 3.19 ± 0.089 | 3.4 ± 0.083 | 3.12 ± 0.088 |
| NLVVSGPPQSLYGLNLT [FAS1] | 2.69 ± 0.071 | 2.35 ± 0.059 | 2.51 ± 0.075 | 2.45 ± 0.043 |
| IRRAYLHYIPKYNRYEK [RPS11A] | 2.04 ± 0.07 | 1.72 ± 0.064 | 1.81 ± 0.1 | 1.85 ± 0.044 |
| QAVNNLIKTLSTLHMLG [RPP1] | 2.5 ± 0.053 | 2.45 ± 0.058 | 2.38 ± 0.071 | 2.47 ± 0.042 |
| VPVTKLGRLVKAGKITT [RPS2] | 3.13 ± 0.091 | 3 ± 0.15 | 3.03 ± 0.11 | 3.45 ± 0.078 |
| WLIEGKLYVDAVHSIIA [YDL116W/NUP84] | 1.2 ± 0.18 | 1.32 ± 0.15 | 1.07 ± 0.28 | 1.1 ± 0.095 |
| EIYYDPDPRSTVIPEDE [RPO21] | 3.04 ± 0.11 | 3.07 ± 0.21 | 3.23 ± 0.14 | 3.06 ± 0.098 |
| SHAIRLGNGVACDPSEI [RGR1] | 1.52 ± 0.088 | 1.64 ± 0.089 | 2.91 ± 0.17 | 2.16 ± 0.15 |
| ATANATANATAELNLPT [SNF11] | 3.096 ± 0.028 | 3.265 ± 0.029 | 3.212 ± 0.032 | 3.282 ± 0.02 |
| SSLIPHCITSITLALAD [MTR3] | 1.28 ± 0.055 | 1.32 ± 0.069 | 1.27 ± 0.17 | 1.3 ± 0.083 |

| Sequence | protein stability index (doa10∆) | protein stability index (pdr5∆) | protein stability index (san1∆) | protein stability index (ubr1∆) |
| --- | --- | --- | --- | --- |
| RNARATRAAKIAPRPLD [RPL13A] |  |  | 3.33 ± 0.1 |  |
| LRTEYGWDSLASRNVWS [SNU114] | 2.85 ± 0.099 | 3.11 ± 0.12 | 3.4 ± 0.099 | 3.38 ± 0.076 |
| TFSQESGLMVILYTSKI [RRI2] | 2.78 ± 0.076 | 3.05 ± 0.084 | 2.6 ± 0.085 | 2.94 ± 0.053 |
| PFMSYSPQLTAIIGLKS [SNF12] | 1.67 ± 0.055 | 2.16 ± 0.062 | 2.3 ± 0.078 | 1.98 ± 0.053 |
| YQNMAFITAKDKYKLYP [YJR042W/NUP85] | 2.9 ± 0.063 | 3.06 ± 0.11 | 3.16 ± 0.076 | 2.88 ± 0.077 |
| ASQPEPTTNEPAKPALS [YJL041W/NSP1] | 2.81 ± 0.097 | 3.14 ± 0.077 | 2.92 ± 0.059 | 3.12 ± 0.06 |
| LNAIILKLEKLNTNRTF [SMC3] | 2.19 ± 0.047 | 2.31 ± 0.051 | 2.24 ± 0.09 | 2.76 ± 0.048 |
| ELTKEEAMYKLQLASLQ [SMC3] | 2.89 ± 0.1 | 2.88 ± 0.068 | 2.55 ± 0.084 | 2.64 ± 0.053 |
| RTPYLTSLKKIKDEIDD [SWI1] | 2.86 ± 0.16 | 2.66 ± 0.091 | 2.21 ± 0.12 | 2.62 ± 0.079 |
| EDFQVLRLGRGINPNTF [YDL088C/ASM4] | 3.29 ± 0.11 | 3.45 ± 0.19 | 3.06 ± 0.11 | 3.52 ± 0.064 |
| GANPRVLSTFTAEFGKI [RPN10] | 2.14 ± 0.11 | 2.08 ± 0.1 | 2.12 ± 0.2 | 2.18 ± 0.073 |
| LKLEKLNTNRTFAQEKL [SMC3] | 2.84 ± 0.07 | 3.08 ± 0.069 | 2.83 ± 0.098 | 2.93 ± 0.057 |
| LITTNSVEEVILERAYK [SNF2] | 2.37 ± 0.092 | 1.85 ± 0.063 | 2.18 ± 0.09 | 1.95 ± 0.031 |
| TISECNLYDDVKCWSKF [MED1] | 2.27 ± 0.093 | 2.34 ± 0.2 | 3.38 ± 0.071 | 3.14 ± 0.12 |
| EVVKSLYDRPLKPDLNK [NAS6] | 3.18 ± 0.11 | 3.38 ± 0.098 | 2.85 ± 0.18 | 3.42 ± 0.1 |
| SSQKDGNDFKFNYQGDE [REC8] | 3.41 ± 0.067 | 3.45 ± 0.072 | 3.43 ± 0.051 | 3.4 ± 0.058 |
| GEGERFTVDKKIAERSL [SKP1] | 3.44 ± 0.12 | 3.38 ± 0.12 | 3.36 ± 0.12 | 3.37 ± 0.24 |
| AKRLIHGTSTSAEDEEN [CDC53] | 2.84 ± 0.14 | 2.44 ± 0.26 |  | 3.57 ± 0.19 |
| TIVSNVEEKPGDRGALA [RPL2A] | 3.16 ± 0.095 | 3.1 ± 0.075 | 3.37 ± 0.058 | 3.4 ± 0.12 |
| GTQLATLKNRGLPLGIA [YGR119C/NUP57] | 2.04 ± 0.067 | 2.29 ± 0.059 | 2.57 ± 0.1 | 2.23 ± 0.031 |
| NQNSDMKKKLELISYRN [SRB8] | 2.91 ± 0.048 | 3.04 ± 0.059 | 2.93 ± 0.051 | 3.08 ± 0.04 |
| FAALSDSYGQGSMTKTW [SSN2] | 3.17 ± 0.094 | 3.34 ± 0.088 | 3.23 ± 0.1 | 3.2 ± 0.063 |
| MRNFSKQNQDSKHNERN [YDL088C/ASM4] | 3.01 ± 0.11 | 3.32 ± 0.14 | 2.46 ± 0.09 | 3.34 ± 0.093 |
| NDILVLMESEREARRLR [RPS28A] | 1.56 ± 0.12 | 2.94 ± 0.079 | 2.08 ± 0.16 | 2.7 ± 0.097 |
| LQLLPLQKAVRGHVLQF [SNF2] | 1.22 ± 0.029 | 1.29 ± 0.041 | 1.23 ± 0.081 | 1.16 ± 0.026 |
| IEIDYTVRVDKASTYGE [SNF12] | 1.68 ± 0.08 | 1.41 ± 0.067 | 1.53 ± 0.16 | 1.39 ± 0.04 |
